The results in this text go back to US20240209076A1 (KODIAK SCIENCES, published 2024).

Test [1] deals with T1, recombinant human IL-6 (human, UniProt P05231 30-212). As to the kind of experiment: SPR, antibody captured on Protein A, IL-6 as analyte. How it is done: Antibodies were captured on a Protein A chip (GE) by injecting 1:20 dilution of cell supernatant at 10 μL/min for 60 seconds. […] The sensor chip was regenerated by a 60 seconds injection of 10 mM Glycine pH 1.7 at flow rate of 50 μL/min. […] For this setup, 1 μg/mL of purified antibody was injected over a Protein A chip at 10 μL/min for 25-28 seconds. Data analysis for supernatant and purified samples were performed using BIAevaluation software (GE). All sensorgrams were double reference subtracted and fit using a 1:1 Langmuir binding model.
In general terms: In SPR one partner is held on a chip, and binding of the other changes the refractive index at the surface.

The target of test [2] is T1, recombinant human IL-6. As to the kind of experiment: IL-6/IL-6R competitive ELISA as in example 3. How it is done:
The plate was blocked in 2% bovine serum albumin (BSA) in PBS-Tween (PBST) for 2 hours. […] This mixture was then added to the ELISA plate following a wash step.

In test [3] the target is T2, biotinylated VEGF (R&D Systems) (UniProt P15692-4 27-191, limits assumed, biotinylated).
T2 construct: also called btVEGF; bt-VEGF
As to the kind of experiment: VEGF/VEGFR competitive ELISA as in example 3. How it is done:
The plate was blocked in 2% bovine serum albumin (BSA) in PBS-Tween (PBST) for 2 hours.
This assay was performed as described in example 3.
On the technique in general: ELISA stands for enzyme-linked immunosorbent assay.

Test [4] addresses VEGF (UniProt P15692-4 27-191, limits assumed). As to the kind of experiment: cell-based or functional assay.

As a reminder, the IC50 is the concentration that inhibits the measured activity by half.

T1 sequence (P05231 30-212 limits assumed): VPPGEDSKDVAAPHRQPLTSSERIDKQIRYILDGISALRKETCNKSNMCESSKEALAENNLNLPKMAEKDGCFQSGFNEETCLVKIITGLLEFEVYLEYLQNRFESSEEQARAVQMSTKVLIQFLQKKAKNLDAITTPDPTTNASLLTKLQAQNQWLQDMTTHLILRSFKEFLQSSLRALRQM
Sequence of VEGF (P15692 other isoform, or with tags, fused parts or gaps limits assumed): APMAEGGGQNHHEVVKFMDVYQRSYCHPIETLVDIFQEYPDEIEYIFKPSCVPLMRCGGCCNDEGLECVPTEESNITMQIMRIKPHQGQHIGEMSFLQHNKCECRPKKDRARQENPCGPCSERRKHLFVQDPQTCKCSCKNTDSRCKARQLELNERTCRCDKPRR
T2 sequence (P15692 other isoform, or with tags, fused parts or gaps limits assumed): as above

B1: anti-IL-6 antibody, heavy chain G66D, light chain wild-type (antibody, human IgG1, V domains shown)
VH: EVQLVESGGGLVQPGGSLRLSCAASGFTFSPFAMSWVRQAPGKGLEWVAKISPGGSWTYYSDTVTDRFTFSLDTSKSTAYLQMNSLRAEDTAVYYCARQLWGYYALDIWGQGTLVTVSS
VL: DIQLTQSPSSLSASVGDRVTITCSASISVSYMYWYQQKPGKAPKLLIYDMSNLASGVPSRFSGSGSGTDFTLTISSLQPEDFATYYCMQWSGYPYTFGQGTKVEIK
notes: see m23; engineered human IgG1
B1: in test [1], the “fold decrease in KD relative to wild-type” value was approximately 2 fold.

B2: VEGFR-AntiIL6-OG1802 (other)
heavy: SDTGRPFVEMYSEIPEIIHMTEGRELVIPCRVTSPNITVTLKKFPLDTLIPDGKRIIWDSRKGFIISNATYKEIGLLTCEATVNGHLYKTNYLTHRQTNTIIDVVLSPSHGIELSVGEKLVLNCTARTELNVGIDFNWEYPSSKHQHKKLVNRDLKTQSGSEMKKFLSTLTIDGVTRSDQGLYTCAASSGLMTKKNSTFVRVHEKGGGGSGGGGSEVQLVESGGGLVQPGGSLRLSCAASGFTFSPFAMHWVRQAPGKGLEWVAKISPGGSWTYYSDTVTDRFTFSLDTSKSTAYLQMNSLRAEDTAVYYCARQAWGYYALDIWGQGTLVTVSSASTKGPSVFPLAPSSKSTSGGTAALGCLVKDYFPEPVTVSWNSGALTSGVHTFPAVLQSSGLYSLSSVVTVPSSSLGTQTYICNVNHKPSNTKVDKKVEPKSCDKTHTCPPCPAPEAAGAPSVFLFPPKPKDTLMISRTPEVTCVVVDVSHEDPEVKFNWYVDGVEVHNAKTKPREEQYNSTYRVVSVLTVLHQDWLNGKEYKCKVSNKALPAPIEKTISKAKGQPREPQVYTLPPSREEMTKNQVSLTCLVKGFYPSDIAVEWESNGQPENNYKTTPPVLDSDGSFFLYSKLTVDKSRWQQGNVFSCSVMHEALHNHYTQKSLSCSPGK
light: DIQLTQSPSSLSASVGDRVTITCSASISVSYLYWYQQKPGKAPKLLIYDDSSLASGVPSRFSGSGSGTDFTLTISSLQPEDFATYYCQQWSGYPYTFGQGTKVEIKRTVAAPSVFIFPPSDEQLKSGTASVVCLLNNFYPREAKVQWKVDNALQSGNSQESVTEQDSKDSTYSLSSTLTLSKADYEKHKVYACEVTHQGLSSPVTKSFNRGEC
modifications: OG1802 phosphorylcholine polymer (about 794 kDa) on Cys L443C (EU numbering; 660C in SEQ ID NO: 170) by maleimide-cysteine chemistry, one polymer per molecule
notes: also called bioconjugate
Take B2: the concentration for half-maximal inhibition (IC50) was found to be 0.23 nM in test [2] and 0.99 nM in test [3]. For the same molecule, the “cell based VEGF stimulated VEGFR reporter assay, average IC50” value in test [4] amounted to 0.35 nM.

B3: VEGFR-AntiIL6 (FIG. 27) (other)
heavy: SDTGRPFVEMYSEIPEIIHMTEGRELVIPCRVTSPNITVTLKKFPLDTLIPDGKRIIWDSRKGFIISNATYKEIGLLTCEATVNGHLYKTNYLTHRQTNTIIDVVLSPSHGIELSVGEKLVLNCTARTELNVGIDFNWEYPSSKHQHKKLVNRDLKTQSGSEMKKFLSTLTIDGVTRSDQGLYTCAASSGLMTKKNSTFVRVHEKGGGGSGGGGSEVQLVESGGGLVQPGGSLRLSCAASGFTFSPFAMHWVRQAPGKGLEWVAKISPGGSWTYYSDTVTDRFTFSLDTSKSTAYLQMNSLRAEDTAVYYCARQAWGYYALDIWGQGTLVTVSSASTKGPSVFPLAPSSKSTSGGTAALGCLVKDYFPEPVTVSWNSGALTSGVHTFPAVLQSSGLYSLSSVVTVPSSSLGTQTYICNVNHKPSNTKVDKKVEPKSCDKTHTCPPCPAPEAAGAPSVFLFPPKPKDTLMISRTPEVTCVVVDVSHEDPEVKFNWYVDGVEVHNAKTKPREEQYNSTYRVVSVLTVLHQDWLNGKEYKCKVSNKALPAPIEKTISKAKGQPREPQVYTLPPSREEMTKNQVSLTCLVKGFYPSDIAVEWESNGQPENNYKTTPPVLDSDGSFFLYSKLTVDKSRWQQGNVFSCSVMHEALHNHYTQKSLSCSPGK
light: DIQLTQSPSSLSASVGDRVTITCSASISVSYLYWYQQKPGKAPKLLIYDDSSLASGVPSRFSGSGSGTDFTLTISSLQPEDFATYYCQQWSGYPYTFGQGTKVEIKRTVAAPSVFIFPPSDEQLKSGTASVVCLLNNFYPREAKVQWKVDNALQSGNSQESVTEQDSKDSTYSLSSTLTLSKADYEKHKVYACEVTHQGLSSPVTKSFNRGEC
B3: the values for the IC50 in test [2] and in test [3] were 0.26 nM and 1.98 nM, respectively. Besides, the “cell based VEGF stimulated VEGFR reporter assay, average IC50” value in test [4] is 0.51 nM.
